Test results taken from patent publication US10772928B2, “Modulation and detection of a neuronal alternative splicing regulatory network for treatment and diagnosis of neurological disorders” (The Governing Council of the University of Toronto, priority 2014, dated 2020).

Molecular target: T1, nSR100 (Mus musculus, UniProt Q8BKA3)
T1 construct: host or cells: mouse N2A cells
T1 sequence (Q8BKA3 1-608): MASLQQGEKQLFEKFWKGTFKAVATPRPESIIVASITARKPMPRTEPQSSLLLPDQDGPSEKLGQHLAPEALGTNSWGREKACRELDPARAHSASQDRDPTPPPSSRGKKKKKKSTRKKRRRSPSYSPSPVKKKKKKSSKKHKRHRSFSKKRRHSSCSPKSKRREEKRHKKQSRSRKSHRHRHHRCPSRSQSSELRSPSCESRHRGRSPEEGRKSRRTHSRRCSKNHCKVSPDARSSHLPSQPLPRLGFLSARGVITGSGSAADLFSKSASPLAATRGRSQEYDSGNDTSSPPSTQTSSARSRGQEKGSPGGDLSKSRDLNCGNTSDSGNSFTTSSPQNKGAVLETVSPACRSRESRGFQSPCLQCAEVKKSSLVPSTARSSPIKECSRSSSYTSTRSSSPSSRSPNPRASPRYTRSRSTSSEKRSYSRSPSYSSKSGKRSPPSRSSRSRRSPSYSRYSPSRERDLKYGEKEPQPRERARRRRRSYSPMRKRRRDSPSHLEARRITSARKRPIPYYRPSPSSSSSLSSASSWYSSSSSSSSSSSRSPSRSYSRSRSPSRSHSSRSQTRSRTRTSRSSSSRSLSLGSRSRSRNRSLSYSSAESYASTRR
Assay: AP-MS nSR100 interaction partners from mouse N2A cells (Table 5)
Assay type: binding
Conditions: for AvgP (average of the SAINT scores) / MaxP (maximal SAINT score): bait Srrm4; for FoldChange between the prey Avg spectra of the bait and control purifications: bait Srrm4, 0.1 added to prevent division by 0; for AvgSpec (average number of spectra per replicate): bait Srrm4, 2 replicates; for Spectra (number of spectra for the prey in the purification of the bait): AP-MS; for SpecSum: bait Srrm4, sum of spectra over 2 replicates

[1] = bait Srrm4, biological replicate 1 (first number of the cell)
[2] = bait Srrm4, biological replicate 2 (second number of the cell)

From the text: By applying affinity purification coupled to mass-spectrometry (AP-MS), several interaction nSR100 partner proteins were detected that provide insight into mechanisms of post-translational regulation of nSR100 levels.

B1: Rbm39 (protein, UniProt Q8VH51 2-530, looked up)
RNA-binding protein 39: ADDIDIEAMLEAPYKKDENKLNSANGHEERSKKRKKSKSRSRSHERKRSKSKERKRSRDRERKKSKSRERKRSRSKERRRSRSRSRDRRFRGRYRSPYSGPKFNSAIRGKIGLPHSIKLSRRRSRSKSPFRKDKSPVREPIDNLTPEERDARTVFCMQLAARIRPRDLEEFFSTVGKVRDVRMISDRNSRRSKGIAYVEFVDVSSVPLAIGLTGQRVLGVPIIVQASQAEKNRAAAMANNLQKGSAGPMRLYVGSLHFNITEDMLRGIFEPFGRIESIQLMMDSETGRSKGYGFITFSDSECAKKALEQLNGFELAGRPMKVGHVTERTDASSASSFLDSDELERTGIDLGTTGRLQLMARLAEGTGLQIPPAAQQALQMSGSLAFGAVAEFSFVIDLQTRLSQQTEASALAAAASVQPLATQCFQLSNMFNPQTEEEVGWDTEIKDDVIEECNKHGGVIHIYVDKNSAQGNVYVKCPSIAAAIAAVNALHGRWFAGKMITAAYVPLPTYHNLFPDSMTATQLLVPSRR
AvgP (average of the SAINT scores): 1
MaxP (maximal SAINT score): 1
FoldChange between the prey Avg spectra of the bait and control purifications: 5.46
AvgSpec (average number of spectra per replicate): 65.5
Spectra (number of spectra for the prey in the purification of the bait) [1]: 65
Spectra (number of spectra for the prey in the purification of the bait) [2]: 66
SpecSum: 131

B2: Ap2a1 (protein, UniProt P17426 1-977, looked up)
AP-2 complex subunit alpha-1: MPAVSKGDGMRGLAVFISDIRNCKSKEAEIKRINKELANIRSKFKGDKALDGYSKKKYVCKLLFIFLLGHDIDFGHMEAVNLLSSNKYTEKQIGYLFISVLVNSNSELIRLINNAIKNDLASRNPTFMCLALHCIANVGSREMGEAFAADIPRILVAGDSMDSVKQSAALCLLRLYKASPDLVPMGEWTARVVHLLNDQHMGVVTAAVSLITCLCKKNPDDFKTCISLAVSRLSRIVSSASTDLQDYTYYFVPAPWLSVKLLRLLQCYPPPEDAAVKGRLVECLETVLNKAQEPPKSKKVQHSNAKNAILFETISLIIHYDSEPNLLVRACNQLGQFLQHRETNLRYLALESMCTLASSEFSHEAVKTHIDTVINALKTERDVSVRQRAADLLYAMCDRSNAKQIVSEMLRYLETADYAIREEIVLKVAILAEKYAVDYSWYVDTILNLIRIAGDYVSEEVWYRVLQIVTNRDDVQGYAAKTVFEALQAPACHENMVKVGGYILGEFGNLIAGDPRSSPPVQFSLLHSKFHLCSVATRALLLSTYIKFINLFPETKATIQGVLRAGSQLRNADVELQQRAVEYLTLSSVASTDVLATVLEEMPPFPERESSILAKLKRKKGPGAASALDDSRRDTSSNDINGGVEPTPSTVSTPSPSADLLGLRAAPPPAAPPAPVGGNLLVDVFSDGPTAQPSLGPTPEEAFLSELEPPAPESPMALLADPAPAADPGPEDIGPPIPEADELLNKFVCKNSGVLFENQLLQIGVKSEFRQNLGRMYLFYGNKTSVQFQNFLPTVVHPGDLQTQLAVQTKRVAAQVDGGAQVQQVLNIECLRDFLTPPLLSVRFRYGGTAQSLTLKLPVTINKFFQPTEMAAQDFFQRWKQLSLPLQEAQKIFKANHPMDAEVTKAKLLGFGSALLDNVDPNPENFVGAGIIQTKALQVGCLLRLEPNAQAQMYRLTLRTSKEPVSRHLCELLAQQF
AvgP (average of the SAINT scores): 1
MaxP (maximal SAINT score): 1
FoldChange between the prey Avg spectra of the bait and control purifications: 7.2
AvgSpec (average number of spectra per replicate): 54
Spectra (number of spectra for the prey in the purification of the bait) [1]: 46
Spectra (number of spectra for the prey in the purification of the bait) [2]: 62
SpecSum: 108

B3: Rnps1 (protein, UniProt Q99M28 1-305, looked up)
RNA-binding protein with …: MDLSGVKKKSLLGVKENNKKSSTRAPSPTKRKDRSDEKSKDRSKDKGATKESSEKDRGRDKTRKRRSASSGSSSTRSRSSSTSSSGSSTSTGSSSGSSSSSASSRSGSSSTSRSSSSSSSSGSPSPSRRRHDNRRRSRSKSKPPKRDEKERKRRSPSPKPTKVHIGRLTRNVTKDHIMEIFSTYGKIKMIDMPVERMHPHLSKGYAYVEFENPDEAEKALKHMDGGQIDGQEITATAVLAPWPRPPPRRFSPPRRMLPPPPMWRRSPPRMRRRSRSPRRRSPVRRRSRSPGRRRHRSRSSSNSSR
AvgP (average of the SAINT scores): 1
MaxP (maximal SAINT score): 1
FoldChange between the prey Avg spectra of the bait and control purifications: 17
AvgSpec (average number of spectra per replicate): 25.5
Spectra (number of spectra for the prey in the purification of the bait) [1]: 26
Spectra (number of spectra for the prey in the purification of the bait) [2]: 25
SpecSum: 51

B4: Plk1 (protein, UniProt Q07832 1-603, looked up)
Serine/threonine-protein …: MNAAAKAGKLARAPADLGKGGVPGDAVPGAPVAAPLAKEIPEVLVDPRSRRQYVRGRFLGKGGFAKCFEISDADTKEVFAGKIVPKSLLLKPHQKEKMSMEISIHRSLAHQHVVGFHDFFEDSDFVFVVLELCRRRSLLELHKRRKALTEPEARYYLRQIVLGCQYLHRNQVIHRDLKLGNLFLNEDLEVKIGDFGLATKVEYEGERKKTLCGTPNYIAPEVLSKKGHSFEVDVWSIGCIMYTLLVGKPPFETSCLKETYLRIKKNEYSIPKHINPVAASLIQKMLQTDPTARPTIHELLNDEFFTSGYIPARLPITCLTIPPRFSIAPSSLDPSSRKPLKVLNKGVENPLPDRPREKEEPVVRETNEAIECHLSDLLQQLTSVNASKPSERGLVRQEEAEDPACIPIFWVSKWVDYSDKYGLGYQLCDNSVGVLFNDSTRLILYNDGDSLQYIERDGTESYLTVSSHPNSLMKKITLLNYFRNYMSEHLLKAGANITPREGDELARLPYLRTWFRTRSAIILHLSNGTVQINFFQDHTKLILCPLMAAVTYINEKRDFQTYRLSLLEEYGCCKELASRLRYARTMVDKLLSSRSASNRLKAS
AvgP (average of the SAINT scores): 1
MaxP (maximal SAINT score): 1
FoldChange between the prey Avg spectra of the bait and control purifications: 430
AvgSpec (average number of spectra per replicate): 43
Spectra (number of spectra for the prey in the purification of the bait) [1]: 43|43
Spectra (number of spectra for the prey in the purification of the bait) [2]: 43|43
SpecSum: 86

B5: Wdr6 (protein, UniProt Q99ME2 1-1125, looked up)
tRNA …: MDAFGDYVWPRATSELILLPVTGLECVGDRLLAGEGPDLLVYNLDLGGHLRMVKRVQNLLGHFLIHGFRVRPEPKGDLDSEAMIAVFGSKGLKVVKVSWGQSHLRELWRSGLWNMSDWIWDVRWIEGNVAVALGHNSVVLYDPVIGCMLQDVPCTDRCTLSSACLVGDTWKELTIVAGAVSNELLIWYPATALTDNKPVAPDRRVSGHVGVIFSMSYLESKGLLATASEDRSVRLWKVGDLRVPGGRVQNIGHCFGHSARVWQVKLLENYLISAGEDCVCLVWSHEGEILQAFRGHRGRGIRAIATHERQAWVVTGGDDSGIRLWHLAGRGYPGLGVSSLSFKSPSRPGALKAVTLAGSWRVLAVTDVGSLYLYDLEVKSWEQLLEDNRFRSYCLLEAAPGPEGFGLCALANGEGLVKVVPINTPTAAVEQKLFQGKVHSLSWALRGYEELLLLASGPGGVIACLEISAAPTGKAIFVKERCRYLLPPSKQRWHTCSAFLPPGDFLVCGDRRGSVMLFPVRPCLFKKPGAGSKAITAAEAPGAGSGSGGSESVPTGIGPVSTLHSLHGKQGVTSVTCHGGYLYSTGRDSSYFQLFVHGGHLQPVLRQKACRGMNWVAGLRMVPDGSMVILGFHANEFVVWSPRSHEKLHIVNCGGGHRSWAFSDTEAAMAFTYLKDGEVMLYRALGGCIRPNVILREGLHGREITCVKRVGTVTLGPEFEVPNLEHPDSLEPGSEGPGLIDIVITGSEDTTVCVLALPTTTGSAHALTSVCNHISSVRALAVWAVGTPGGPQDTRPGLTAQVVSAGGRAEIHCFSVMVTPDASTPSRLACHVMHLSSHRLDEYWDRQRNKHKMIKVDPETRYMSLAICELDNDRPGLGPGPLVAAACSDGAVRLFLLQDSGRILHLLAESFHHKRCVLKVHSFTHEAPNQRRRLILCSAATDGSLAFWDLTTAMDKGSTTLELPAHPGLPYQMGTPSMTVQAHSCGVNSLHTLPTPEGHHLVASGSEDGSLHVFTLAVKMPEPEEADGEAELVPQLCVLEEYSVPCAHAAHVTGVKILSPKLMVSASIDQRLTFWRLGQGEPTFMNSTVYHVPDVADMDCWPVSPEFGHRCALAGQGLEVYNWYD
AvgP (average of the SAINT scores): 1
MaxP (maximal SAINT score): 1
FoldChange between the prey Avg spectra of the bait and control purifications: 160
AvgSpec (average number of spectra per replicate): 16
Spectra (number of spectra for the prey in the purification of the bait) [1]: 13
Spectra (number of spectra for the prey in the purification of the bait) [2]: 19
SpecSum: 32
